Target: His6-KIF3A-motor (mouse, UniProt P28741 1-350)
Experiment: SPR

His6-KIF3A-motor, sequence (P28741 1-350): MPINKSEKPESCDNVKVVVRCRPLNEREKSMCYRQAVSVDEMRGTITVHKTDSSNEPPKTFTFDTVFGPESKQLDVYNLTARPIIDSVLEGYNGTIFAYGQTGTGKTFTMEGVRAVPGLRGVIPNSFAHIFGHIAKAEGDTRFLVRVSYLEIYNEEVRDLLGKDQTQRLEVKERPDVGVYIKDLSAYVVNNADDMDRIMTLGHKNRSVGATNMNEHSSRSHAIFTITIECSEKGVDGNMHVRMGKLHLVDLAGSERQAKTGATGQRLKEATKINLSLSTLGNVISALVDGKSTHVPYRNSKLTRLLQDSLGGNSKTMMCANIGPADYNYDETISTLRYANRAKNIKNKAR

Kd: 48.4 nM
B1: GST-KIF3A-S689A-Tail (domain or fragment, mouse, UniProt P28741 598-701, looked up)
chain: IPQDYQEMIENYVHWNEDIGEWQLKCVAYTGNNMRKQTPVPDKKERDPFEVDLSHVYLAYTEESLRQSLMKLERPRTSKGKARPKMGRRKRAAKPETVIDSLLQ

From article doi:10.1101/503680 (bioRxiv, 2018)
